The source of these data is patent publication US20240425612A1.

The target in test [1] is hFcγRIIIa-158F-streptavidin-His (human) (UniProt P08637). In words: BLI. On the technique in general: BLI is a label-free optical method that tracks binding on a fibre tip over time.
The target in test [2] is hFcγRIIIa-158V-streptavidin-His (human) (UniProt P08637). Kind of test: BLI.
hFcγRIIIa-158V-streptavidin-His (human), sequence (P08637 17-208 F176V): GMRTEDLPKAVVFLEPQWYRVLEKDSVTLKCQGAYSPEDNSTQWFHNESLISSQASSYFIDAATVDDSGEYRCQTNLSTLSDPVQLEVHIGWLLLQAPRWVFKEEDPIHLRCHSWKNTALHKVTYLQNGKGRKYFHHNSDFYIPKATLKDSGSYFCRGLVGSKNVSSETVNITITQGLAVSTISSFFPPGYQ

hFcγRIIIa-158F-streptavidin-His (human), sequence (P08637 17-208): as the sequence (P08637 17-208 F176V) above, with V160F counted along it

For “Trastuzumab-DE (S239D/I332E) from Xencor”, the results for the Kd in test [1] and in test [2] were 67.3 nM and 46.5 nM, respectively.

Broadly, the Kd is the concentration at which binding is half-saturated. A lower Kd goes with tighter binding.
